The EC50 is the concentration that produces a half-maximal response. A higher EC50 goes with a less potent agent. The term EC90 denotes the point of the concentration-response curve where the effect stands at 90%. A high value points to a need for much substance. The IC50 is the concentration that gives 50% inhibition. The low end stands for greater potency in that assay, the high end for weaker potency in that assay.

From patent US20230227539A1 (HIFIBIO HK, published 2023) come the findings set out here.

To fix the notation:
B1: Ab-2 IgG1 (antibody, V domains shown)
VH: EVQLVESGGGLIQPGGSLRLSCAASGFIVSSNYMSWVRQAPGKGLEWVSIIYSGGSTFYADSVKGRFTISRDNSKNTLYLQMNSLRVEDTAVYYCARDLQELGSLDYWGQGTLVTVSS
VL: DIQMTQSPSSVSASVGDRVTITCRASQGISSWLAWYQQKPGKAPKLLIYAASSLQSGVPSRFSGSGSGTDFTLTISSLQPEDFATYYCQEANSFPYTFGQGTKLEIKR
notes: also called 2A2A; C1S5-2A2A
B2: Ab-3 (IgG1) (antibody, V domains shown)
VH: QLQLQESGPGLVKPSETLSLTCTVSGGSISSTIYYWGWIRQPPGKGLEWIGSIYYSGNAYYNPSLKSRVTISVDTSKNQFSLMLNSVTASDTAVYYCATPHTRWGPDYWGQGTLVTVSS
VL: NFMLTQPHSVSASPGKTVTVSCTRSSGSIASNYVLWYQQRPGSAPTTVIYEDDQRPSGVPDRFSASIDSSSNSASLTISGLKTEDEADYYCQSYDGDNLVFGGGTKLTVLG
B3: Ab-1 (IgG1) (antibody, V domains shown)
VH: B2 VH with T32S, M83K, S90A
VL: B2 VL
B4: Ab-4 (IgG1) (antibody, V domains shown)
VH: QITLKESGPTLVKPTQTLTLTCTFSGFSLSTSGVGVGWIRQPPGKALEWLALIYWDDDKRYSPSLKSRLTITKDTSKNQVVLTMTNMAPVDTATYYCAHRLSNFWSGYYTGWGQGTLVTVSS
VL: not shown
B5: Ab-6 (antibody, V domains shown)
VH: QVQLVQSGAEVKKPGASVKVSCKVSGYTLTELSMHWVRQAPGKGLEWMGGFDPEDGETIYAQKFQGRVTMTEDTSTDTAYMELSSLRSEDTAVYYCATGHQLLFYNWFDPWGQGTLVTVSS
VL: QSALTQPPSASGSPGQSVTISCTGTSSDVGGYNYVSWYQQHPGKAPKLMIYEVSKRPSGVPDRFSGSKSGNTASLTVSGLQAEDEADYYCSSYAGSNNLVFGGGTKLTVLG
B6: Ab-7 (antibody, V domains shown)
VH: EVQLVESGGGLVKPGGSLRLSCAASGFAFSSYTMNWVRQAPGKGLAWVSSISSSSDYIFYADSVKGRCTISRDNAKNSLSLQMNSLRAEDTAVYYCARGSNTAWGGVPDAFDFWGLGTVVTVSS
VL: B5 VL with G31R, A82T
B7: Ab-8 (antibody, V domains shown)
VH: B1 VH with S25P
VL: B1 VL
B8: Ab-9 (antibody, V domains shown)
VH: B1 VH with Y107C
VL: B1 VL

Where a chain is given by its changes, count along the chain named. Bounds are passed on as bounds.

One experiment addresses T1, SARS-CoV-2 Spike S1+S2 ECD, his Tag protein (SARS-CoV-2, UniProt P0DTC2 14-1213).
T1 construct: extracellular domain
The experiment can be described thus: binding to full-length S protein.
B1 showed a 50% effective concentration (EC50) of 0.55 nM.

In a further experiment the target is T2, SARS-CoV-2 S protein on pseudotyped virus (wild type) (SARS-CoV-2, UniProt P0DTC2 14-1273). The experiment can be described thus: cell-based or functional assay.
Consider B2, for which the “Pseudo-virus neutralization IC50” value is 5.8 nM and the “Pseudo-virus neutralization IC90” value was 52.2 nM.

As for B3, the “Pseudo-virus neutralization IC50” value came out at 4.07 nM and the “Pseudo-virus neutralization IC90” value was 36.6 nM.

As for B4, the “Pseudo-virus neutralization IC50” value is over 300 nM and the “Pseudo-virus neutralization IC90” value was over 300 nM.

Consider B1, for which the “Pseudo-virus neutralization IC50” value is 0.53 nM and the “Pseudo-virus neutralization IC90” value turned out to be 4.76 nM.

For a further experiment, the target named is T1, SARS-CoV-2 Spike S1+S2 ECD, his Tag …. Put plainly: ELISA on His-tagged S1+S2 ECD (FIG. 7). (In an ELISA, binding on a coated surface is turned into a signal by an enzyme label.)
The molecule B1 gave an EC50 of 0.021 nM.

The target of a further experiment is T2, SARS-CoV-2 S protein on pseudotyped …. Put plainly: cell-based or functional assay. The source holds these as a separate data set.
Consider B2, for which the “Pseudo-virus neutralization (Test 1) IC80” value came out at 23.2 nM, the “Pseudo-virus neutralization (Test 2) IC50” value is 2.61 nM and the “Pseudo-virus neutralization (Test 2) IC80” value came out at 10.4 nM.

On to B3, for which the “Pseudo-virus neutralization (Test 1) IC80” value came out at 16.3 nM, the “Pseudo-virus neutralization (Test 2) IC50” value stood at 1.62 nM and the “Pseudo-virus neutralization (Test 2) IC80” value was found to be 6.48 nM.

In the case of B1, the “Pseudo-virus neutralization (Test 1) IC80” value stood at 2.11 nM, the “Pseudo-virus neutralization (Test 2) IC50” value came to 0.32 nM and the “Pseudo-virus neutralization (Test 2) IC80” value came to 1.29 nM.

The next experiment deals with T1, SARS-CoV-2 Spike S1+S2 ECD, his Tag …. The experiment can be described thus: ELISA, coated S1+S2 ECD His.
Turning to B2, the EC50 stood at 0.5 nM and it took 9.36 nM to reach the 90% level (EC90).

Regarding B3, the concentration giving a half-maximal response (EC50) is 0.53 nM and it took 6.03 nM to reach the 90% level (EC90).

B4 came in with an EC50 of 14.2 nM and an EC90 of 328 nM.

As to B1, a half-maximal response (EC50) required 0.5 nM and the EC90 amounted to 2.56 nM.

A further experiment concerns the target T3, SARS-CoV-2 S1 protein (S1 fragment of the S protein) (SARS-CoV-2, UniProt P0DTC2 16-685).
T3 construct: domain: S1
The experiment can be described thus: SPR negative control; as indicated by the domain ELISA.
With B4, the binding result is listed as “no binding”.

Another experiment has as its target SARS-CoV-2 Spike S1, mFc tag spike protein (SARS-CoV-2, UniProt P0DTC2 16-685).
Assay: not given
As for B2, the IC50 was 10.6 nM.

In turn, B3 displayed an IC50 of 11.1 nM.

As for B4, the IC50 was over 300 nM.

Take B1: the half-inhibitory concentration (IC50) is 3.78 nM.

A further experiment deals with T1, SARS-CoV-2 Spike S1+S2 ECD, his Tag …. The experiment can be described thus: ELISA (FIG. 6).
As to B5, the binding result was “binds”.

For B6, the binding result is “binds”.

As to B7, the binding result is listed as “binds”.

For B8, the binding result is “binds”.
